Test results: US20240270846A1 (published 2024)
Where a chain is given by its changes, count along the chain named.

B1: GLS3000 H27dD one-arm antibody (H chain CE115HA000) (antibody, human IgG1, kappa, L234A L235A, N297A, name in Kabat numbering)
heavy: QVQLVESGGGVVQPGRSLRLSCAASGFTFSNAWMHWVRQAPGKGLEWVAQIKAKSNNYATYYAESVKGRFTISRDDSKNSLYLQMNSLKTEDTAVYYCRYVHYGAYYGVDAWGQGTTVTVSSASTKGPSVFPLAPSSKSTSGGTAALGCLVKDYFPEPVTVSWNSGALTSGVHTFPAVLQSSGLYSLSSVVTVPSSSLGTQTYICNVNHKPSNTKVDKKVEPKSCDKTHTCPPCPAPEAAGGPSVFLFPPKPKDTLMISRTPEVTCVVVDVSHEDPEVKFNWYVDGVEVHNAKTKPREEQYASTYRVVSVLTVLHQDWLNGKEYKCKVSNKALPAPIEKTISKAKGQPREPQVYTLPPSRCELTKNQVSLSCAVKGFYPSDIAVEWESNGQPENNYKTTPPVLDSDGSFFLVSKLTVDKSRWQQGNVFSCSVMHEALHNHYTQKSLSLSPDYKDDDDK
chain: EPKSSDKTHTCPPCPAPELLGGPSVFLFPPKPKDTLMISRTPEVTCVVVDVSHEDPEVKFNWYVDGVEVHNAKTKPREEQYNSTYRVVSVLTVLHQDWLNGKEYKCKVSNKALPAPIEKTISKAKGQPREPQVCTLPPSRDELTKNQVSLWCLVKGFYPSDIAVEWESNGQPENNYKTTPPVLDSDGSFFLYSKLTVDKSRWQQGNVFSCSVMHEALHNRYTQKSLSLSP
light: DIVMTQSPLSLPVTPGEPASISCRSSQSLVDSNRNTYLHWYQQKPGQAPRLLIYKVSNRFSGVPDRFSGSGSGTDFTLKISRVEAEDVGVYYCGQGTQVPYTFGQGTKLEIKRTVAAPSVFIFPPSDEQLKSGTASVVCLLNNFYPREAKVQWKVDNALQSGNSQESVTEQDSKDSTYSLSSTLTLSKADYEKHKVYACEVTHQGLSSPVTKSFNRGEC
notes: one-arm antibody
B2: GLS3000 H27dL one-arm antibody (H chain CE115HA000) (antibody, human IgG1, kappa, L234A L235A, N297A, name in Kabat numbering)
heavy: B1 heavy
chain: B1 chain
light: B1 light with D31L
notes: one-arm antibody
B3: GLS3000 H27dE one-arm antibody (H chain CE115HA000) (antibody, human IgG1, kappa, L234A L235A, N297A, name in Kabat numbering)
heavy: B1 heavy
chain: B1 chain
light: B1 light with D31E
notes: one-arm antibody
B4: GLS3000 H27dP one-arm antibody (H chain CE115HA000) (antibody, human IgG1, kappa, L234A L235A, N297A, name in Kabat numbering)
heavy: B1 heavy
chain: B1 chain
light: B1 light with D31P
notes: one-arm antibody
B5: GLS3000 H27dF one-arm antibody (H chain CE115HA000) (antibody, human IgG1, kappa, L234A L235A, N297A, name in Kabat numbering)
heavy: B1 heavy
chain: B1 chain
light: B1 light with D31F
notes: one-arm antibody
B6: GLS3000 H27dN one-arm antibody (H chain CE115HA000) (antibody, human IgG1, kappa, L234A L235A, N297A, name in Kabat numbering)
heavy: B1 heavy
chain: B1 chain
light: B1 light with D31N
notes: one-arm antibody
B7: GLS3000 H27dG one-arm antibody (H chain CE115HA000) (antibody, human IgG1, kappa, L234A L235A, N297A, name in Kabat numbering)
heavy: B1 heavy
chain: B1 chain
light: B1 light with D31G
notes: one-arm antibody
B8: GLS3000 H27dK one-arm antibody (H chain CE115HA000) (antibody, human IgG1, kappa, L234A L235A, N297A, name in Kabat numbering)
heavy: B1 heavy
chain: B1 chain
light: B1 light with D31K
notes: one-arm antibody
B9: GLS3000 H27dM one-arm antibody (H chain CE115HA000) (antibody, human IgG1, kappa, L234A L235A, N297A, name in Kabat numbering)
heavy: B1 heavy
chain: B1 chain
light: B1 light with D31M
notes: one-arm antibody
B10: GLS3000 H27dI one-arm antibody (H chain CE115HA000) (antibody, human IgG1, kappa, L234A L235A, N297A, name in Kabat numbering)
heavy: B1 heavy
chain: B1 chain
light: B1 light with D31I
notes: one-arm antibody

biological target: T1, CD3 epsilon homodimer protein (UniProt P07766 23-126); experiment: SPR, CD3e homodimer on chip;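 also: surface plasmon resonance at 25 degrees C, antibodies flowed as analyte over CD3 epsilon homodimer amine-coupled to a CM4 chip, running buffer HBS-EP+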
T1 construct: also called CD3 (CD3 epsilon)
T1 sequence (P07766 23-126): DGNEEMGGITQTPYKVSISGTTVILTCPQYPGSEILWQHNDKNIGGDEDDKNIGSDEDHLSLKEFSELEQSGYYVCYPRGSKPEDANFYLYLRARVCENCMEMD
Method: An appropriate amount of CD3 epsilon homodimer protein was immobilized onto Sensor chip CM4 (GE Healthcare Japan Corp.) by the amine coupling method. Then, the antibody having an appropriate concentration was injected thereto as an analyte and allowed to interact with the CD3 epsilon homodimer protein on the sensor chip. Then, the sensor chip was regenerated by the injection of 10 mmol/L glycine-HCl (pH 1.5). The assay was conducted at 25 degrees C., and HBS-EP+(GE Healthcare Japan Corp.) was used as a running buffer. […] Each parameter was calculated using Biacore T200 Evaluation Software (GE Healthcare Japan Corp.).
Specifically, when the amount of the GLS3000-containing antibody bound was defined as X and the amount of the L chain one-amino acid altered form bound was defined as Y, a value of Z (ratio of amounts bound)=Y/X was used.

Binder	ratio of amounts bound (altered form / unaltered GLS3000 antibody)
B1	0.22
B2	0.3
B3	0.23
B4	0.24
B5	0.63
B6	0.3
B7	0.3
B8	0.29
B9	0.3
B10	0.26
